This is an account of results in the DeepSol protein solubility set.

This data set in a line: soluble on expression in E. coli; label from the status in PepcDB or PDB records.
“MRDRLLAAEKVKAIDWRDDALYLLDQRVLPFEEVWHRYTTAAGVAEAIRTMVVRGAPAIGISAAYGAVLGARARIAEGGDWYPALEEDMQLLADSRPTAVNLFWALNRIRDRLMRVKNGDNPLAALEAEAVAIHLSDREANLTMAQLGADLIRKHQGNLQTVLTHCNTGALATGGFGTALGVIRAAHLEGMIERVYADETRPWLQGSRLTAWELANEGIPVTLNADSAAAHLMRTKGITWVIVGADRITANGDVANKIGTYQLAVAAMHHGVRFMVVAPSSTIDMEMASGDDIIIEERDGRELLEVGGQRVGADVEAFNPVFDVTPADLIDAIVTEKGIVERPDTARMAQLMSRKHLHLEHHHHHH”: the “soluble on expression in E. coli” value was “soluble”. “MTASDSAADETGDLRHEAHAWVISLTSGRVTQGDARAFRQWCARSPQHLRAFVEARDLWQALGSAAALPLEPPAVAQIAPRRFGRRWFVGGALAASVALFVLRPSLLDHGLGGADYVTAVGEQRQVQVSGETRIEMNTRTRLNVRRNQEQQETIELLGGEAEIIASHPPQSSLRVMAGSAWLSASRARFNVRSSGDVCVVTCLEGSVRLEHLGQRLDLQAGQQLTFDERRNGPPVPFDVAEVMAWRERMLVFNDVPLATVIDEINRYRPGMLLLLDKALGRRRVQARFSLDQLADVATLIRDAYGIEVTRLPGGVVLLG”: the “soluble on expression in E. coli” value is recorded as “not soluble”. Take “SRLSIDLYPKIETSNIMVVTSYAGASASDIENNVTKVLENTLNGVSNLKHITSKSRENASVITLQFNEGVDIEVATNDVRDKLDAVSNFLPDDVNKPMIFKFGTDDIPITMLSVQAKESTMALSKILEDKVTNALARLDGVGAVSIMGTVKREIQVYCDPAKLEAYNLTVEAVSQIISAENKNVPAGLIDLGNKTSSIRIQGEFADARQLNQIVVASVGGRNVYLSDVARVEDTHAENEQESYNNNVRGAMIMINKQSGANSVAISRAVRGALPEIQASLPSDVELGTIFDTSDNIVNTINSLRD”: the “soluble on expression in E. coli” value was “not soluble”. For “MKPAYFISDLHLSEKQPELTALLLRFLRSSAAGQARAIYILGDLFDFWVGDDEVSELNTSVAREIRKLSDKGVAVFFVRGNRDFLIGQDFCRQAGMTLLPDYSVLDLFGCKTLICHGDTLCTDDRAYQRFRKIVHRKRLQKLFLMLPLKWRTRLATKIRRVSKMEKQVKPADIMDVNAAFTARQVRAFGAERLIHGHTHREHIHHENGFTRIVLGDWHNDYASILRVDGDGAVFVPLEKY”, the “soluble on expression in E. coli” value is “not soluble”.

Consider “MITAYIALGSNLNTPVEQLHAALKAISQLSNTHLVTTSSFYKSKPLGPQDQPDYVNAVAKIETELSPLKLLDELQRIENEQGRVRLRRWGERTLDLDILLYGNEIIQNERLTIPHYDMHNREFVIVPLFEIASDLVLPNSQIITELVKQFADHKMIKLNP”, for which the “soluble on expression in E. coli” value is “soluble”. Turning to “MRALREKTSMSQGVEFNRLMLDMRAMQMDAMSAPKPVSGAQEAGASSFADMLGQAVNKVAQTQQASSQLANAFEVGKSGIDLTDVMISSQKASVSFQALTQVRNKLVQAYQDIMQMPV”, the “soluble on expression in E. coli” value is “not soluble”. On to “MIDMVVLTKEKIIEIIEEKTGMSREKIEEEIRRIMEEDPHLSEQGAAALLAERLGIDLIEREETSLMKISDLYPGMDPREVNIIGRVLKKYPVREYTKKDGSIGRVASLVIYDDSGRARVVLWDGKVAEYYNKIEVGDVIKVLDAQVRESLSGLPELHINFRARIILNPEDPRVDSIPPLEEVRIATYTRKKIGDIEPGDRFIEIRGTIAKVYRVLTYDACPECKKKVDYDPGTGVWICPEHGEVEPIKMTILDFGLDDGTGYIRVTLFGDDAEELLGVSSEEIAEKIKELENSGLTTKEAARKLAEEEFYKIIGKEIVVRGNVIEDRFLGLILRASSWEEVDYRKEIENIKEELEKLGVMLEHHHHHH”, for which the “soluble on expression in E. coli” value is “not soluble”. Consider “MQRFVFGGKLWKFNETFGCYDDYPHVAPFLAVEHFASFPVHPPTFIFSNAAVSNILSMEEIKSVLIRLDELISSNNLHNHPCLISQAGAQATMRLASKDQLRSDWNTSVEIPFCLYVTQNGVCPRQFDYEDLHKQSQWVALFEEVILPLDKMQGSKLSKIAPHQHSSVVKNAIMKSKREKKTSCKKHSKSISGIDSSSSGCNSL”, for which the “soluble on expression in E. coli” value is reported as “not soluble”.

As to “MSRNLHHTEEIYQSSYLNSSLIEFMPNTILPGKETVFMSSKMEQIIEEIEDYIDGCKPSPISRNKILVNREQLEELLSELRTKTPEEVKRYQKIISNKEAILADAQAKADQIIAQAQIQTNELVSEHQIMQQAYAQANEVVQIATKQAQEILDSATNEANNLRMSAMAYTDSQLKSIEDILTGSIETSKARYDSLISSLQQFEDVVAANRAELFPPEENGDEAAGAESSDNEATSDTSDDDIEITNISDSDEDAK”, the “soluble on expression in E. coli” value is on record as “not soluble”. Consider “MGSDKIHHHHHHMLDQNQTPLIDGIKACIARPHAAFYTPGHKRGRGIAQPLADLLGEAVFGADLTELANLDNLSAPQGVIQEAQRLAAAAFGAAQTWFLVNGSTCGVEAAIMATCRPGDKIILPRNVHSSAIAGLILSGAIPIFIHPEYDQVLDIAHSMTPEAVKAALQQHPDAKAVLAVYPTYYGVCGDLEAIAQITHQYNIPLLVDEAHGAHFTFHPELPTPALAAGADLTVQSIHKVLGAMTQASMLHIQGDRINAVRVSQALQLLQSTSPSYVLLASLDAARQQMALCGKQLMSRTLQLANEARERISQIPGLSVLQPPTMTPSSGFTTLDKTRLTITVSGLGLTGFAAEEILDEQLGVTAEFATFKHLTFIISLGNTTADIEQLVQGFTTLAETTPPAKALVNPRVNSNLEYFSEISPRDAFFADSETLSIEQARDRICAEIICPYPPGIPVIMPGEVITKPAIEYLQHIQSSGGFITGCADTSLSTLKVLVIGH”, for which the “soluble on expression in E. coli” value was “not soluble”. As for “DTEGKAHNEQAESIELEGDRIYKITLKDGLKFSDGTPIKAENFVKTWNYAVANDQLNASFFEGIKGFKEGVKELEGLKVVDDKTFTVELDQPESDFPSRLGYSAFFALPDIAFDDMAAFGENPVSSGPYKLAEWNHNESLTIVPNEEYQGDRKAKNDGVKFVFYASQDAAYSDLLAGNLDVLDQVPDSAFATYKDELGDRAVNQPAAVFQSFTIPEKLEHFSGEEGALRRAAISHAINREEITKTIFQDTRTPAKDFSSPVVDGYKEGLKGSEVVKFDSAKAKELWAQADKISKFTGEFTIAYNSDGGHQSWVDAVANQLKNNLGIAASGKPYPDFKSLRDEVTNHTITGAFRTGWQGDYPLLGNFLQPLYATNASSNDGQYSNPAFDAKLEEAAGAKSVEEGLKLYQEAEEILFKDLPAIPLWYANVNGGSSDKVSNVTFNWKSVAAYEQITKG”, the entry is “not soluble”; as for “MAIVGQPNLRELFDDAPTPHIAHPPHTHRRDFYVATDGSYASDGAGLGVIIETRDGSRVLRRSVPDTAPDNNVAEYRALHLGLDTLAARTPPDASVGVLVDHDALAGDVNSAVLATQRRDYQPVRAFSAPRDARHHWRGIRARVTGFAEIRAAQVDSSRNPAHALANEPSQYAHVNDEPDRCLLPDATTSTEPQIPPPSRSDRPAGDLEHHHHHH”, “not soluble”; as for “MGSDKIHHHHHHMINETRTTLDQSEVDHFSRIAAEWWNPHGKFRPLHQFNPTRLAYIREKICLELHRDPVSLKPFENLKILDIGCGGGLLCEPMARLGAMVVGADASQTNIEVAKIHAAQNGLSIDYRTTTAEALATEGEQFDIILNMEVVEHVADVNLFIEATAKMLKPQGLMFISTLNRTWKAWGLAIIGAEYILRWLPKGTHNYKKFLKPRELKNLLLQNALTVVDEIGVTYNPLNDSWNRSKDMNVNYLLLAKKS”, “not soluble”.

Turning to “YAEIRARLYLMTGQTNKALNELRRLCNRFPEVNEFRLKYAGTLLDSEKYDEAYEQLQLIARTDSTSGLYHFAMASYYLGTNEKEAAINEMIKVAADKDVAPEQKLPIILRFIGTDTDEEDAPKKEYNILLEKILASHPTEVDARLFYAELLEMQGDSIHAMEVCRPITEFAPKEERAWKFMLGRAVTGQNHTEVHRISEQARQYLPGVPLFYLYDAISYYIEKKGSEAKHILQEALEHIDAEKDPNGLSDIYSQLGDLAYEENKPEEAFANYEKALELNPRNVGVLNNYAYFLAKEGGDLAKAERMAAQCVKLLPDNAVSLDTYGWVFFLRENYTLAKLYIEKALGLAADNPDADVVEHHGDVLYMLGEKEKAMLEWKRAKEIGGGGSPMLDKKIEQGKYIPEKKK”, the “soluble on expression in E. coli” value is “not soluble”. In the case of “MSLNKVSLAQIAKAAGVSKMTASRVLRDEGGFSESTRARVMAEIDRLGYVPNRLATVFAGDQRSTFVGVSIPELGNEIFAQVLEGIDRKLGAFGHQTVLGMTEHALEQEEKWLETVLSWQPAGLIVTGRSHTPKSIQLLSGAGIPLVEIWDFNSSPLDMSVGLNHFDSGYSMGRYLTGLGYRQFGYVGTSHDTANAASARLAGYAKVIGDSGGSLKKQLLLKDAPGFYTGYYGTEQLLAANSDVEVIYYQNDNMAVGGLNYCQKRGLSIPGDIGIAGWGDLPIASILPYRLTSTAVPHLRIGMIAAEMVLSQINGEARRRSQDVGFTLIPGSTVRSQLEEGHHHHHH”, the “soluble on expression in E. coli” value is reported as “soluble”.

As for “MRGSHHHHHHTDPALRATQKNFVELRNVTKRFGSNTVIDNINLTIPQGQMVTLLGPSGCGKTTILRLVAGLEKPSEGQIFIDGEDVTHRSIQQRDICMVFQSYALFPHMSLGENVGYGLKMLGVPRAELKARVKEALAMVDLEGFEDRFVDQISGGQQQRVALARALILKPKVLLFDEPLSNLDANLRRSMRDKIRELQKQFDITSLYVTHDQSEAFAVSDTVLVMNKGHIMQIGSPQDLYRQPASRFMASFMGDANLFPATFSDGYVDIYGYHLPRPLHFGTQGEGMVGVRPEAITLSDRGEESQRCVIRHVAYMGPQYEVTVEWHGQEILLQVNATRLQPDVGEQYYLEIHPYGMFVLADAAGLCGR”, the “soluble on expression in E. coli” value was “soluble”. The result for “MATIDSMNKDTTRLSDGPDWTFDLLDVYLAEIDRVAKLYRLDTYPHQIEVITSEQMMDAYSSVGMPINYPHWSFGKKFIETERLYKHGQQGLAYEIVINSNPCIAYLMEENTITMQALVMAHACYGHNSFFKNNYLFRSWTDASSIVDYLIFARKYITECEERYGVDEVERLLDSCHALMNYGVDRYKRPQKISLQEEKARQKSREEYLQSQVNMLWRTLPKREEEKTVAEARRYPSEPQENLLYFMEKNAPLLESWQREILRIVRKVSQYFYPQKQTQVMNEGWATFWHYTILNHLYDEGKVTERFMLEFLHSHTNVVFQPPYNSPWYSGINPYALGFAMFQDIKRICQSPTEEDKYWFPDIAGSDWLETLHFAMRDFKDESFISQFLSPKVMRDFRFFTVLDDDRHNYLEISAIHNEEGYREIRNRLSSQYNLSNLEPNIQIWNVDLRGDRSLTLRYIPHNRAPLDRGRKEVLKHVHRLWGFDVMLEQQNEDGSVELLERCPPRMGNL” reads “not soluble”; that for “MAEEEVGNSQRQSEEIEAMAAIYGEEWCVIDENAKIFCIRVTDFMDDPKWTLCLQVMLPSEYPGTAPPSYQLNAPWLKGQERADLSNSLEEIYVHNMGESILYQWVEKIRDALIQKSQITEPDPDVKKKTEEVEVESEEDPILEHPPENPVKTLDLKISEETQPETEELPPVAHGVPITDRRSTFQAHVAPVVCPEQVKLVLAKLYENKKIASATHNIYAYRIFCEDKQTFLQDCEDDGETAAGGRLLHLMEILNVKNVMVVVSRWYGGILLGPDRFKHINNCARNILVEKNFTNTPDESTKNLGKKKVKKDKKKNDH”, “soluble”; that for “MFASKDINDLIAIVAGLRNRESGCIWNIKQTFESLIPYMLEEVYEVIDAIERKNRTDLCDELGDLLLQVVYHATIAQEEGSFTFEDVVYAITSKMIRRHPHVFGNAEQKKRGFIEDEWERIKKTERAEQNKCYEAVNLPTNSTTSILEKIKKLQPAHQEALALQKAAATVGFNWHESHKFFAKIEEEINELKDAIKNDKTSDIEAEFGDLYFSLLNLALHLNIDSQKALKKTNTKFRNRFTYIEESLYTQSKTLANTSLKEMESLWNKAKNKK”, “not soluble”.
